Data from patent US20260242735A1 (UNIVERSIT T BASEL, published 2026).
Each block holds one binder with its values, some of them ahead of it.

Tests used:
human CD33 N20T = human CD33 N20T (human, UniProt P20138 18-364); assay: flow cytometry, mutant on cells, IgG
human CD33 P19D = human CD33 P19D (human, UniProt P20138 18-364); assay: flow cytometry, mutant on cells, IgG
human CD33 Q24L = human CD33 Q24L (human, UniProt P20138 18-364); assay: flow cytometry, mutant on cells, IgG
human CD33 D18N = human CD33 D18N (human, UniProt P20138 19-364); assay: flow cytometry, mutant on cells, IgG
human CD33 T42P = human CD33 T42P (human, UniProt P20138 18-364); assay: flow cytometry, mutant on cells, IgG
human CD33 F44D = human CD33 F44D (human, UniProt P20138 18-364); assay: flow cytometry, mutant on cells, IgG
human CD33 W22G = human CD33 W22G (human, UniProt P20138 18-364); assay: flow cytometry, mutant on cells, IgG
human CD33 H45Y = human CD33 H45Y (human, UniProt P20138 18-364); assay: flow cytometry, mutant on cells, IgG
human CD33 F21V = human CD33 F21V (human, UniProt P20138 18-364); assay: flow cytometry, mutant on cells, IgG
human CD33 N20G = human CD33 N20G (human, UniProt P20138 18-364); assay: flow cytometry, mutant on cells, IgG
human CD33 I47G = human CD33 I47G (human, UniProt P20138 18-364); assay: flow cytometry, mutant on cells, IgG
human CD33 W22Y = human CD33 W22Y (human, UniProt P20138 18-364); assay: flow cytometry, mutant on cells, IgG
human CD33 W22S = human CD33 W22S (human, UniProt P20138 18-364); assay: flow cytometry, mutant on cells, IgG
human CD33 F21H = human CD33 F21H (human, UniProt P20138 18-364); assay: flow cytometry, mutant on cells, IgG
human CD33 N20V = human CD33 N20V (human, UniProt P20138 18-364); assay: flow cytometry, mutant on cells, IgG
human CD33 W22L = human CD33 W22L (human, UniProt P20138 18-364); assay: flow cytometry, mutant on cells, IgG
human CD33 I47T = human CD33 I47T (human, UniProt P20138 18-364); assay: flow cytometry, mutant on cells, IgG
human CD33 Q24R = human CD33 Q24R (human, UniProt P20138 18-364); assay: flow cytometry, mutant on cells, IgG
human CD33 P46H = human CD33 P46H (human, UniProt P20138 18-364); assay: flow cytometry, mutant on cells, IgG
human CD33 variant Y127H = human CD33 variant Y127H (human, UniProt P20138 18-364); assay: flow cytometry, IgG on cells expressing the mutant
Description: (§1) An alanine scan on human CD33 was performed to the determine the residues on CD33 that are involved in binding to the antibodies investigated. […] Briefly, a mutation library of CD33 was created by high-throughput, site-directed mutagenesis. Each residue was individually mutated to alanine, with alanine codons mutated to serine. The mutant library was arrayed in 384-well microplates and transiently transfected into HEK293-T. Following transfection, cells were incubated with the indicated antibodies (IgG or Fab) at concentrations pre-determined using an independent immunofluorescence titration curve on wild type CD33. […] Binding of each antibody to each mutant clone was determined in duplicates. For each point, background fluorescence was subtracted from the raw data, which were then normalized to antibody reactivity with wild type CD33.
(§2) Antibodies were screened for binding to the human CD33 variants in IgG format. […] For each mutation, background fluorescence was subtracted from the raw data, which were then normalized to antibody reactivity with wild-type CD33.

human CD33 variant Y49D = human CD33 variant Y49D (human, UniProt P20138 18-364); assay: flow cytometry, IgG on cells expressing the mutant
Description: as §1, §2

human CD33 variant R122F = human CD33 variant R122F (human, UniProt P20138 18-364); assay: flow cytometry, IgG on cells expressing the mutant
Description: as §1, §2

human CD33 variant P48T = human CD33 variant P48T (human, UniProt P20138 18-364); assay: flow cytometry, IgG on cells expressing the mutant
Description: as §1, §2

human CD33 variant P48V = human CD33 variant P48V (human, UniProt P20138 18-364); assay: flow cytometry, IgG on cells expressing the mutant
Description: as §1, §2

human CD33 variant P48L = human CD33 variant P48L (human, UniProt P20138 18-364); assay: flow cytometry, IgG on cells expressing the mutant
Description: as §1, §2

human CD33 variant R122I = human CD33 variant R122I (human, UniProt P20138 18-364); assay: flow cytometry, IgG on cells expressing the mutant
Description: as §1, §2

human CD33 variant P48M = human CD33 variant P48M (human, UniProt P20138 18-364); assay: flow cytometry, IgG on cells expressing the mutant
Description: as §1, §2

human CD33 variant Y49R = human CD33 variant Y49R (human, UniProt P20138 18-364); assay: flow cytometry, IgG on cells expressing the mutant
Description: as §1, §2

human CD33 variant P48F = human CD33 variant P48F (human, UniProt P20138 18-364); assay: flow cytometry, IgG on cells expressing the mutant
Description: as §1, §2

human CD33 variant Y49C = human CD33 variant Y49C (human, UniProt P20138 18-364); assay: flow cytometry, IgG on cells expressing the mutant
Description: as §1, §2

human CD33 variant R122G = human CD33 variant R122G (human, UniProt P20138 18-364); assay: flow cytometry, IgG on cells expressing the mutant
Description: as §1, §2

human CD33 variant Y49P = human CD33 variant Y49P (human, UniProt P20138 18-364); assay: flow cytometry, IgG on cells expressing the mutant
Description: as §1, §2

human CD33 variant P48G = human CD33 variant P48G (human, UniProt P20138 18-364); assay: flow cytometry, IgG on cells expressing the mutant
Description: as §1, §2

human CD33 variant I47E = human CD33 variant I47E (human, UniProt P20138 18-364); assay: flow cytometry, IgG on cells expressing the mutant
Description: as §1, §2

human CD33 variant R122S = human CD33 variant R122S (human, UniProt P20138 18-364); assay: flow cytometry, IgG on cells expressing the mutant
Description: as §1, §2

human CD33 variant D51N = human CD33 variant D51N (human, UniProt P20138 18-364); assay: flow cytometry, IgG on cells expressing the mutant
Description: as §1, §2

Sequence of human CD33 I47T (P20138 18-364 I47T limits assumed): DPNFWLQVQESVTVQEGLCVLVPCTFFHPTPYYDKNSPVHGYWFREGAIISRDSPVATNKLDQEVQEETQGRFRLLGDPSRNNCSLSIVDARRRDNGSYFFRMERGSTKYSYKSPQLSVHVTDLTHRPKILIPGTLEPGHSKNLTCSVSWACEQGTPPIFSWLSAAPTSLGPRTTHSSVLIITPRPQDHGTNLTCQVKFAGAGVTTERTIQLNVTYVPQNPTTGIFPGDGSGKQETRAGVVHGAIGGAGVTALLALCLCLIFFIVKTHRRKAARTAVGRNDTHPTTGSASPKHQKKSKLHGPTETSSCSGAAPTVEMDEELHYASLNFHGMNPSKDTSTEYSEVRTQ
Sequence of human CD33 D18N (P20138 18-364 D18N limits assumed): as the sequence (P20138 18-364 I47T limits assumed) above, with D1N, T30I counted along it
Sequence of human CD33 F44D (P20138 18-364 F44D limits assumed): as the sequence (P20138 18-364 I47T limits assumed) above, with F27D, T30I counted along it
Sequence of human CD33 N20G (P20138 18-364 N20G limits assumed): as the sequence (P20138 18-364 I47T limits assumed) above, with N3G, T30I counted along it
Sequence of human CD33 W22S (P20138 18-364 W22S limits assumed): as the sequence (P20138 18-364 I47T limits assumed) above, with W5S, T30I counted along it
Sequence of human CD33 Q24R (P20138 18-364 Q24R limits assumed): as the sequence (P20138 18-364 I47T limits assumed) above, with Q7R, T30I counted along it
Sequence of human CD33 P19D (P20138 18-364 P19D limits assumed): as the sequence (P20138 18-364 I47T limits assumed) above, with P2D, T30I counted along it
Sequence of human CD33 F21H (P20138 18-364 F21H limits assumed): as the sequence (P20138 18-364 I47T limits assumed) above, with F4H, T30I counted along it
Sequence of human CD33 W22Y (P20138 18-364 W22Y limits assumed): as the sequence (P20138 18-364 I47T limits assumed) above, with W5Y, T30I counted along it
Sequence of human CD33 P46H (P20138 18-364 P46H limits assumed): as the sequence (P20138 18-364 I47T limits assumed) above, with P29H, T30I counted along it
Sequence of human CD33 N20T (P20138 18-364 N20T limits assumed): as the sequence (P20138 18-364 I47T limits assumed) above, with N3T, T30I counted along it
Sequence of human CD33 F21V (P20138 18-364 F21V limits assumed): as the sequence (P20138 18-364 I47T limits assumed) above, with F4V, T30I counted along it
Sequence of human CD33 H45Y (P20138 18-364 H45Y limits assumed): as the sequence (P20138 18-364 I47T limits assumed) above, with H28Y, T30I counted along it
Sequence of human CD33 T42P (P20138 18-364 T42P limits assumed): as the sequence (P20138 18-364 I47T limits assumed) above, with T25P, T30I counted along it

Mean % WT Binding (human CD33 N20T): 116 % WT binding
Mean % WT Binding (human CD33 P19D): 99.3 % WT binding
Mean % WT Binding (human CD33 Q24L): 102 % WT binding
Mean % WT Binding (human CD33 D18N): 59.2 % WT binding
Mean % WT Binding (human CD33 T42P): 12.7 % WT binding
Mean % WT Binding (human CD33 F44D): 2 % WT binding
Mean % WT Binding (human CD33 W22G): 113 % WT binding
Mean % WT Binding (human CD33 H45Y): 80.7 % WT binding
Mean % WT Binding (human CD33 F21V): 117 % WT binding
Mean % WT Binding (human CD33 N20G): 105 % WT binding
Mean % WT Binding (human CD33 I47G): 3.7 % WT binding
Mean % WT Binding (human CD33 W22Y): 107 % WT binding
Mean % WT Binding (human CD33 W22S): 105 % WT binding
Mean % WT Binding (human CD33 F21H): 117 % WT binding
Mean % WT Binding (human CD33 N20V): 116 % WT binding
Mean % WT Binding (human CD33 W22L): 110 % WT binding
Mean % WT Binding (human CD33 I47T): 1.8 % WT binding
Mean % WT Binding (human CD33 Q24R): 96.8 % WT binding
Mean % WT Binding (human CD33 P46H): 95.1 % WT binding
B1: Refmab #2 (antibody, human IgG1, V domains shown)
VH: QVQLVQSGAEVKKPGSSVKVSCKASGGTFSDYAISWVRQAPGQGLEWMGRIIPILGVADYAQKFQGRVTITADKSTRTAYMELSSLRSEDTAVYYCARNWADAFDIWGQGTMVTVSS
VL: DIQLTQSPSSLSASVGDRVTITCRASQGISSVLAWYQQKPGKAPKLLIYDASSLESGVPSRFSGSGSGTDFTLTISSLQPEDFATYYCQQFDSSITFGQGTKLEIK
notes: Tested in IgG format; human IgG1 Fc silent (PG-LALA)

Mean % WT Binding (human CD33 variant Y127H): 114 % of WT
Mean % WT Binding (human CD33 variant Y49D): 1.4 % of WT
Mean % WT Binding (human CD33 variant R122F): 1.2 % of WT
Mean % WT Binding (human CD33 variant P48T): 71.3 % of WT
Mean % WT Binding (human CD33 variant P48V): 79.5 % of WT
Mean % WT Binding (human CD33 variant P48L): 90.4 % of WT
Mean % WT Binding (human CD33 variant R122I): 1.1 % of WT
Mean % WT Binding (human CD33 variant P48M): 87.5 % of WT
Mean % WT Binding (human CD33 variant Y49R): 44.9 % of WT
Mean % WT Binding (human CD33 variant P48F): 68.7 % of WT
Mean % WT Binding (human CD33 variant Y49C): 3.2 % of WT
Mean % WT Binding (human CD33 variant R122G): 12.2 % of WT
Mean % WT Binding (human CD33 variant Y49P): 6.9 % of WT
Mean % WT Binding (human CD33 variant P48G): 80.8 % of WT
Mean % WT Binding (human CD33 variant I47E): 0.5 % of WT
Mean % WT Binding (human CD33 variant R122S): 3.4 % of WT
Mean % WT Binding (human CD33 variant D51N): 96.7 % of WT
B2: Refmab #2 (antibody, human IgG1, V domains shown)
VH: B1 VH
VL: B1 VL
notes: as for B1

Mean % WT Binding (human CD33 N20T): 92.1 % WT binding
Mean % WT Binding (human CD33 P19D): 94.8 % WT binding
Mean % WT Binding (human CD33 Q24L): 97 % WT binding
Mean % WT Binding (human CD33 D18N): 76 % WT binding
Mean % WT Binding (human CD33 T42P): 21.6 % WT binding
Mean % WT Binding (human CD33 F44D): 110 % WT binding
Mean % WT Binding (human CD33 W22G): 105 % WT binding
Mean % WT Binding (human CD33 H45Y): 79.2 % WT binding
Mean % WT Binding (human CD33 F21V): 118 % WT binding
Mean % WT Binding (human CD33 N20G): 103 % WT binding
Mean % WT Binding (human CD33 I47G): 72.5 % WT binding
Mean % WT Binding (human CD33 W22Y): 86.1 % WT binding
Mean % WT Binding (human CD33 W22S): 103 % WT binding
Mean % WT Binding (human CD33 F21H): 123 % WT binding
Mean % WT Binding (human CD33 N20V): 118 % WT binding
Mean % WT Binding (human CD33 W22L): 108 % WT binding
Mean % WT Binding (human CD33 I47T): 82.4 % WT binding
Mean % WT Binding (human CD33 Q24R): 98.6 % WT binding
Mean % WT Binding (human CD33 P46H): 69.5 % WT binding
B3: Refmab #4 (antibody, human IgG1, V domains shown)
VH: QVQLVQSGAEVKKPGESVKVSCKASGYTFTNYGMNWVKQAPGQGLEWMGWINTYTGEPTYADKFQGRVTMTTDTSTSTAYMEIRNLGGDDTAVYYCARWSWSDGYYVYFDYWGQGTSVTVSS
VL: DIVMTQSPDSLTVSLGERTTINCKSSQSVLDSSTNKNSLAWYQQKPGQPPKLLLSWASTRESGIPDRFSGSGSGTDFTLTIDSPQPEDSATYYCQQSAHFPITFGQGTRLEIK
notes: as for B1
